Measured values: patent publication US20190161551A1 (Regeneron, published 2019)

B1: H1M8037C (antibody, mouse IgG1, kappa, V domains shown)
VH: QVQLVQSGAEVKKPGASVKVSCKASGYTFTNYDIIWVRQAPGQGLEWMGYINPYNDGTKYNEKFKGRVTMTRDTSTSTVYMELSSLRSEDTAVYYCARLLKYRRFRYYAIDYWGQGTTVTVSS
VL: DIQMTQSPSSLSASVGDRVTITCRTSENVYSNLAWYQQKPGKAPKLLIYAASNLQSGVPSRFSGSGSGTDYTFTISSLQPEDIATYYCQHFWGSPFTFGQGTKLEIKR
notes: captured by anti-mFc in SPR; also called Comparator; comparator anti-TrkB monoclonal antibody
B2: H4H9816P2 (antibody, human IgG4 S228P, kappa, V domains shown)
VH: EVQLVESGGGLVQPGGSLTLSCAASGFNFRDYEMIWVRQTPGKGLEWISYISNSGYTIYYADSVKGRFTISRDNARNSIYLQVNSLRAEDTAVYYCSRRTTMIRGIRAYYYYGLDVWGQGTTVTVSS
VL: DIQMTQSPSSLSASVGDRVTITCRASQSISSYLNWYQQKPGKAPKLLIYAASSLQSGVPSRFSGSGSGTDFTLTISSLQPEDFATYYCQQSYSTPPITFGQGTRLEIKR
notes: Fully human anti-human TrkB agonist antibody, human IgG4 Fc; also called H4H9816P-L1
B3: H4H9780P (antibody, human IgG4 S228P, kappa, V domains shown)
VH: QVQLVESGGGVVQPGRSLRLSCAASGFSFSSFGMHWVRQAPGKGLEWVSVISYDGINTYYTDSVKGRFTISRDNSKNTLYLQMNGLRAEDTALYYCVQGSIGTVFEYWGQGTLVTVSS
VL: DIQMTQSPSSLSASVGDRVTITCRASQGISNYLAWYQQKPGKVPKLLIYAASTLQSGVPSRFGGSGSGTDFTLTISSLQPEDVATYYCQKYTSAPFTFGPGTKVDIKR
notes: Fully human anti-human TrkB agonist antibody, human IgG4 Fc; also called H4H9780P-L1
B4: H4H9814P (antibody, human IgG4 S228P, kappa, V domains shown)
VH: EVQLVESGGGLVQPGGSLKLSCTASGFTFSGSVIHWVRQASGKGLEWIGRIRNKANSYATAYGASVTGRFTISRDDSKNTAYLQMNSLKTEDTAVYYCTFPGVVGRGGFDYWGQGTLVTVSS
VL: DIVMTQSPDSLAVSLGEGATINCMSSQSVLFSSNNKNYLAWYQQKPGQPPKLLFYWASTRESGVPDRFGGSGSGTDFSLTINSLQTEDVAVYYCLQYYSIPWTFGQGTKVEIKR
notes: Fully human anti-human TrkB agonist antibody, human IgG4 Fc; also called H4H9814P-L1
B5: M2aM14179N (antibody, mouse IgG2a, kappa, V domains shown)
VH: EVQLQQSGPELVKPGASVKISCKASGYTLTDYYMNWVKQSHGKSLEWIGDINPNNGGTSYNQKFKGKATLTVDKSSSTAYMELRSLTSEDSAVYYCARGAYYSNYFDYWGQGTTLTVSS
VL: DIVMSQSPSSLAVSAGEKVTMSCKSSQSLLNSRTRKNYLAWYQQKPGQSPKLLIYWASTRESGVPDRFTGSGSGTDFTLTISSVQAEDLAVYYCKQSYILFTFGSGTQLEIKR
notes: Anti-mouse TrkB antibody from hybridoma, mouse IgG2a Fc; also called surrogate anti-mouse TrkB antibody
B6: M2aM14173N (antibody, mouse IgG2a, kappa, V domains shown)
VH: NVSLVESGGGSVKPGGSLQLSCAASGFTFSSSAMSWIRQTPEMRLEWVATISDRGSYTYYPDSVEGRFTISRDNAKNILYLQMSHLMSEDTAMYYCARGKGEKAYYTAFFAYWGQGSLVTVSA
VL: DIQMTQSPASLSASVGETVTITCRASENIYSYLAWYQQKPGKSPHLLVHNAETLAEGVPSRFSGSGSGPQFSLKINSLQPGDSGTYYCQHHYSSPWTFGGGTKLEIKR
notes: as for B5

Each binder was assayed against human TrkB expressed on HEK293/SRE-Luc/hTrkB cells (human, UniProt Q16620 32-822) (assay: cell-based or functional assay).
Sequence of human TrkB expressed on HEK293/SRE-Luc/hTrkB cells (Q16620 32-822): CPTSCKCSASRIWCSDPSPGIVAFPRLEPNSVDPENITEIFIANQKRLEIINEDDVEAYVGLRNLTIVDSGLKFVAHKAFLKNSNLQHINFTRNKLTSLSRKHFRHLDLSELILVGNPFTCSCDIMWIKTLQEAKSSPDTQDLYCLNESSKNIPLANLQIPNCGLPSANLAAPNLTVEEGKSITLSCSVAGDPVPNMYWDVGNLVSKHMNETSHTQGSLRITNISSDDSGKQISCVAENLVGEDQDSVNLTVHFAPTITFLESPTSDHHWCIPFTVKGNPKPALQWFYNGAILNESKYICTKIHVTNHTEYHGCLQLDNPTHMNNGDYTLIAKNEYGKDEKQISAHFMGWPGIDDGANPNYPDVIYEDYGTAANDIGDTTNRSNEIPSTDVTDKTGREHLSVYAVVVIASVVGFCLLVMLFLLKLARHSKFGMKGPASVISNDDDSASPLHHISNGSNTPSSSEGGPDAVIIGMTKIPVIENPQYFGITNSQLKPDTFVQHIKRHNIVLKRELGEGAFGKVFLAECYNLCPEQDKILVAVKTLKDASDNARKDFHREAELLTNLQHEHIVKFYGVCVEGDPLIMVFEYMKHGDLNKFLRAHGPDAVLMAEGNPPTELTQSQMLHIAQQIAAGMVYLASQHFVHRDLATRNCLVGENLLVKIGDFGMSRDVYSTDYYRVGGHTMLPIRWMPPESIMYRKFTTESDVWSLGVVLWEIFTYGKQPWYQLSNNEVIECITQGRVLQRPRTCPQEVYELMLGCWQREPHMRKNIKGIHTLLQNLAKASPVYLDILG

Row | Binder | Activation (%), SRE-luciferase, 100 pM BDNF | Activation (%), SRE-luciferase, No BDNF | EC50 (M), SRE-luciferase, 100 pM BDNF | EC50 (M), SRE-luciferase, No BDNF
1 | B1 | 79% | 78% | 1.1e-10 M | 7.6e-11 M
2 | B2 | 78% | 90% | 4.5e-11 M | 6.3e-11 M
3 | B3 | 77% | 88% | 7.6e-11 M | 8.2e-11 M
4 | B4 | 80% | 92% | 4.9e-11 M | 3.5e-11 M

These binders were tested against mouse TrkB extracellular domain fused to the transmembrane and cytoplasmic domains of human TrkB, expressed … (mouse; human, UniProt Q16620 431-822, limits assumed) (assay: cell-based or functional assay).
Sequence of mouse TrkB extracellular domain fused to the transmembrane and cytoplasmic domains of human TrkB, expressed … (Q16620 other isoform, or with tags, fused parts or gaps limits assumed, form in doubt): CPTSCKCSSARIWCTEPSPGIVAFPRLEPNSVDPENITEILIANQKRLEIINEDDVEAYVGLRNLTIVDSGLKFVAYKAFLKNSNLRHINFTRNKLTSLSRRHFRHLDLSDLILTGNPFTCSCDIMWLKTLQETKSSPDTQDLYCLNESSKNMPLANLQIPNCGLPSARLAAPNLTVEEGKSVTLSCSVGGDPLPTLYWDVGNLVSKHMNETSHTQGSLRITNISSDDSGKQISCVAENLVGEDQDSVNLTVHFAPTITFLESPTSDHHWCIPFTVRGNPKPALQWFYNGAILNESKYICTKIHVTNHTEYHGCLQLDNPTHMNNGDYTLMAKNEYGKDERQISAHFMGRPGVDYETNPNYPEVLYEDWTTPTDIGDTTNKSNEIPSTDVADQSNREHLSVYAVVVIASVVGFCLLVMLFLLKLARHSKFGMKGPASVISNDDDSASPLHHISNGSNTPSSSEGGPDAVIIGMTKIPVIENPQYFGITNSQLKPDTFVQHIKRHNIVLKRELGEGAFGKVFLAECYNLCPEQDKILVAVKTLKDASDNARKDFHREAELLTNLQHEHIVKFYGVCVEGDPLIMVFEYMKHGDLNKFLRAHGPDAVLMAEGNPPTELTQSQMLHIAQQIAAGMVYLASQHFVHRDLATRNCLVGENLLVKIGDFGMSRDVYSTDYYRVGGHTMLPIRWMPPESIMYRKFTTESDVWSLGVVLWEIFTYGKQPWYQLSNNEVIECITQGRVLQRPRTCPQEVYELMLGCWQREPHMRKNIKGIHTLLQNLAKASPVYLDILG

Row | Binder | Activation (%), SRE-luciferase, 100 pM BDNF | Activation (%), SRE-luciferase, No BDNF | EC50 (M), SRE-luciferase, 100 pM BDNF | EC50 (M), SRE-luciferase, No BDNF
5 | B1 | 69% | 85% | 4.2e-11 M | 4.3e-11 M
6 | B2 | 58% | 0% |  | 
7 | B3 | 55% | 0% |  | 
8 | B4 | 54% | 0% |  | 

The binders below were run against T1, mouse TrkB extracellular domain expressed with a C-terminal myc-myc-hexahistidine tag (mouse, UniProt P15209 32-429) (assay: SPR, mAb captured (anti-hFc), 25C).
T1 construct: also called mTrkB.mmH; mTRKB.mmH
T1 sequence (P15209 other isoform, or with tags, fused parts or gaps): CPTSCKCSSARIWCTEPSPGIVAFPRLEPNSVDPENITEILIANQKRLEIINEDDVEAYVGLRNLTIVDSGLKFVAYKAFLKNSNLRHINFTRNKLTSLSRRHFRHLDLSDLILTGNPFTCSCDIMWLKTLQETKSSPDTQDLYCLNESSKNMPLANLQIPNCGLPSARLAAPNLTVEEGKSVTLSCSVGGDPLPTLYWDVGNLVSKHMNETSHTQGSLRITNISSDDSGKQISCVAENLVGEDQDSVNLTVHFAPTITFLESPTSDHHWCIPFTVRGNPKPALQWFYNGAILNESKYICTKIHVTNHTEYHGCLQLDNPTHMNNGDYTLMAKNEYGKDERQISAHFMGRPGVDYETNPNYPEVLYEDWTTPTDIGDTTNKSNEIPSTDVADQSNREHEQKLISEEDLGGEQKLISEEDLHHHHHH
Procedure: (§1) Equilibrium dissociation constants (KD values) for TrkB binding to purified anti-TrkB monoclonal antibodies were determined using a real-time surface plasmon resonance biosensor using a Biacore 4000 instrument. All binding studies were performed in 10 mM Hepes pH 7.4, 150 mM NaCl, 3 mM EDTA, and 0.05% v/v Surfactant Tween-20 (HBS-ET running buffer) at 25° C. and 37° C. […] Binding studies were performed on following TrkB reagents; human TrkB extracellular domain expressed with a C-terminal myc-myc-hexahistidine tag (hTRKB.mmH; SEQ ID NO: 76; Accession number NP_001018074.1), mouse TrkB extracellular domain expressed with a C-terminal myc-myc-hexahistidine tag (mTRKB.mmH; SEQ ID NO: 79; Accession number NP_001020245), rat TrkB extracellular domain expressed with a C-terminal myc-myc-hexahistidine tag (rTRKB.mmH; SEQ ID NO: 84; Accession number NP_036863.1), and human TrkB extracellular domain expressed with a C-terminal mouse IgG2a Fc tag (hTrkB-mFc; SEQ ID NO: 77; Accession number NP_001018074.1). […] Kinetic association (kₐ) and dissociation (kd) rate constants were determined by fitting the real-time binding sensorgrams to a 1:1 binding model with mass transport limitation using Scrubber 2.0c curve-fitting software. Binding dissociation equilibrium constants (KD) and dissociative half-lives (t½) were calculated from the kinetic rate constants as: […]

Row | Binder | 100 nM mTrkB.mmH Bound (RU) | binding result
9 | B2 | 0 RU | no binding (tested: 100 nM)
10 | B3 | -1 RU | 
11 | B4 | -2 RU | 

Each binder was assayed against T2, rat TrkB extracellular domain expressed with a C-terminal myc-myc-hexahistidine tag (rat, UniProt Q63604 32-429) (assay: SPR, mAb captured (anti-hFc), 25C).
T2 construct: also called rTrkB.mmH; rTRKB.mmH
T2 sequence (Q63604 other isoform, or with tags, fused parts or gaps): as the sequence (P15209 other isoform, or with tags, fused parts or gaps) above, with T3M, S9T, A10T, V32I, R63K, S84G, M153T, L185I, S394T counted along it
Procedure: as §1

Row | Binder | 100 nM rTrkB.mmH Bound (RU)
12 | B2 | 0 RU
13 | B3 | -1 RU
14 | B4 | -1 RU

What follows are binders tested against T3, human TrkB extracellular domain expressed with a C-terminal myc-myc-hexahistidine tag (human, UniProt Q16620 32-430) (assay: SPR, mAb captured (anti-hFc), 25C).
T3 construct: also called hTrkB.mmH; hTRKB.mmH
T3 sequence (Q16620 other isoform, or with tags, fused parts or gaps): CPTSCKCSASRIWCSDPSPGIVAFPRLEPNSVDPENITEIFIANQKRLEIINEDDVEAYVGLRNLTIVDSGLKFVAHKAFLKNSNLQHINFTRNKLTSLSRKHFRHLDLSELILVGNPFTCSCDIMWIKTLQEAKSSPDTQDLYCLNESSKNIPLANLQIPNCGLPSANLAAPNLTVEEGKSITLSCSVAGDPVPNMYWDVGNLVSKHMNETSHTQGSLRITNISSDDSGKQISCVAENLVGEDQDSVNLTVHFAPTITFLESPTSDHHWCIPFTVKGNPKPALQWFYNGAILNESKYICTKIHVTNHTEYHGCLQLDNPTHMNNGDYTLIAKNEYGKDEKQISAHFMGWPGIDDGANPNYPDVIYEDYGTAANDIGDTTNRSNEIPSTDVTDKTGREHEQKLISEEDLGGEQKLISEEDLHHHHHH
Procedure: as §1

Row | Binder | 100 nM hTrkB.mmH Bound (RU) | Kd | koff | kon | t½
15 | B2 | 30 RU | 13800 pM | 0.000845 s⁻¹ | 61400 M⁻¹ s⁻¹ | 14 min
16 | B3 | 20 RU | 21700 pM | 0.000867 s⁻¹ | 40000 M⁻¹ s⁻¹ | 13 min
17 | B4 | 63 RU | 545 pM | 0.000686 s⁻¹ | 1.26e+06 M⁻¹ s⁻¹ | 17 min

The binders below were run against T4, human TrkB extracellular domain expressed with a C-terminal mouse IgG2a Fc tag (human) (assay: SPR, mAb captured (anti-hFc), 25C).
T4 construct: also called hTrkB-mFc; hTrkB.mFc
T4 sequence (chain, as listed by the source limits assumed): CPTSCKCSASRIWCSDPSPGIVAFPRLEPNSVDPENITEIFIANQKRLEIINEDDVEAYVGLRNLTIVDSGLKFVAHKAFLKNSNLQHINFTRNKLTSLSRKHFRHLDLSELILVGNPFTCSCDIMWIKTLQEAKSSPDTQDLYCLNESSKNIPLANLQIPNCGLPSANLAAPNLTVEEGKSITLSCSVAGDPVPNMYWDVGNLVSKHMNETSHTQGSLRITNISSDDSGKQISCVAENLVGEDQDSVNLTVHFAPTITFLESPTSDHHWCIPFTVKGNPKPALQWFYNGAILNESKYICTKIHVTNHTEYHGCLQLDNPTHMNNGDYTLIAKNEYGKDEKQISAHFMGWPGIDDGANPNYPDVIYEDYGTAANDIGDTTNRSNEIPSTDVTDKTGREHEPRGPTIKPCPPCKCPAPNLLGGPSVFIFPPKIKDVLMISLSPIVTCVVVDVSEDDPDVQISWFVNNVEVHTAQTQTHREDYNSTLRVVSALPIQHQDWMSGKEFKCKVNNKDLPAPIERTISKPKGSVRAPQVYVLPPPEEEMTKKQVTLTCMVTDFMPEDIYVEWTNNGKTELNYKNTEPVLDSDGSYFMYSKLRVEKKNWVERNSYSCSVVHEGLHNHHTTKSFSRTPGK
Procedure: as §1

Row | Binder | 100 nM hTrkB-mFc Bound (RU) | Kd | koff | kon | t½
18 | B2 | 25 RU | 1220 pM | 7.98e-05 s⁻¹ | 65200 M⁻¹ s⁻¹ | 145 min
19 | B3 | 14 RU | 4480 pM | 0.000168 s⁻¹ | 37400 M⁻¹ s⁻¹ | 69 min
20 | B4 | 69 RU | 31.1 pM | 5.95e-05 s⁻¹ | 1.91e+06 M⁻¹ s⁻¹ | 194 min

Each binder was assayed against T5, mouse TrkB.hFc (mouse) (assay: BLI Octet, captured mTrkB.hFc, 300 nM mAb, no ligand).
T5 construct: also called mTrkB.hFc; mTrkB-hFc
T5 sequence (chain, as listed by the source limits assumed): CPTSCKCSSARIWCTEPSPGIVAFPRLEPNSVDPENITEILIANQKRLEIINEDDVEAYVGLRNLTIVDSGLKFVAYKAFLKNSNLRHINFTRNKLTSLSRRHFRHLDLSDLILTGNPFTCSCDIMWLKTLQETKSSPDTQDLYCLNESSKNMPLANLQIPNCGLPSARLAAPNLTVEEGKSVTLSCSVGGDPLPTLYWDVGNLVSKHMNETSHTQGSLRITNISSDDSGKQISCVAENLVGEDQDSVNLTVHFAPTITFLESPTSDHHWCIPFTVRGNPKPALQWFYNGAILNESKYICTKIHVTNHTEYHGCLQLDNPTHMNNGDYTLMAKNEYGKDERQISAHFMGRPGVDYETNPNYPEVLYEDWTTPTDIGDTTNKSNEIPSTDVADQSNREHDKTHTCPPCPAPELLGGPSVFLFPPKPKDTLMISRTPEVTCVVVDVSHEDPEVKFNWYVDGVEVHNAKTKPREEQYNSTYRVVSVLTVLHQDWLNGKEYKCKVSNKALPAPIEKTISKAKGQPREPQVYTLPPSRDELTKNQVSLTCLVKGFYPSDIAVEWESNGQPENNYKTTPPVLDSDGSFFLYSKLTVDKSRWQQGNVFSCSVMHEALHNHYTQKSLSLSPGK
Procedure: (§2) Blocking of anti-human TrkB or anti-mouse TrkB antibodies from binding to TrkB by BDNF or NT-4 was evaluated using a real-time bio-layer interferometry (BLI) based Octet HTX instrument. The entire study was performed in 10 mM HEPES pH 7.4, 300 mM NaCl, 3 mM EDTA, 1 mg/mL BSA, 0.02% NaN3 and 0.05% v/v Surfactant Tween-20 (HBS-EBT running buffer) at 25° C. All the samples were dispensed in a 384 tilted well plate and the plate was placed on the orbital shaker with the shake speed of 1000 rpm. hTrkB.mFc was captured on anti-mFc (AMC) Octet sensors while hTrkB.hFc or mTrkB.hFc were captured on anti-hFc (AHC) Octet sensors by dipping in wells containing 10 μg/mL of TrkB reagents for 2 minutes. hTrkB.mFc or hTrkB.hFc captured Octet biosensors were saturated by dipping in wells containing 20 nM of BDNF, hNT-4, or mNT-4 for 2 minutes followed by dipping Octet biosensors in wells containing 300 nM of different TrkB mAbs for 4 minutes. Binding of TrkB mAbs to the complex of TrkB and BDNF, hNT-4, or mNT-4 was determined using Scrubber 2.0c analysis software.

Row | Binder | antibody Binding (nm)
21 | B1 | 0.42 nm
22 | B5 | 0.42 nm
23 | B6 | 0.42 nm

The binders below were run against T4, human TrkB extracellular domain … (assay: BLI Octet, captured hTrkB.mFc saturated with BDNF, 300 nM mAb).
Procedure: as §2

Row | Binder | antibody Binding (nm)
24 | B2 | 0.26 nm
25 | B3 | 0.2 nm
26 | B4 | 0.22 nm

What follows are binders tested against T5, mouse TrkB.hFc (assay: BLI Octet, captured mTrkB.hFc saturated with mNT-4, 300 nM mAb).
Procedure: as §2

Row | Binder | antibody Binding (nm)
27 | B1 | 0.11 nm
28 | B5 | 0.43 nm
29 | B6 | 0.4 nm
